We go through one molecule from publication PMC7181697.

The target of test [1] is REV7^Y63A-SHLD3(1–82) (human) (UniProt Q9UI95). Briefly: ITC; method not named in the sentence (Supplementary Fig. 7e, f); ITC is the only method for affinities that the methods describe.
Test [2] addresses REV7^W171A-SHLD3(1–82) (human) (UniProt Q9UI95). The description is as above.

Sequence of REV7^W171A-SHLD3(1–82) (human) (Q9UI95 whole entry W171A, chain 1 of 2): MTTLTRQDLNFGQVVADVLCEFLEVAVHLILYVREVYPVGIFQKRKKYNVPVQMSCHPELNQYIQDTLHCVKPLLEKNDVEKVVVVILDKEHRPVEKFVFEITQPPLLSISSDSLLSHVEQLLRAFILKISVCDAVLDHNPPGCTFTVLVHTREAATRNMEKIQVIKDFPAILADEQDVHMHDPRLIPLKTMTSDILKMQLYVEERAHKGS
Sequence of REV7^W171A-SHLD3(1–82) (human) (Q6ZNX1 1-82, chain 2 of 2, further chain): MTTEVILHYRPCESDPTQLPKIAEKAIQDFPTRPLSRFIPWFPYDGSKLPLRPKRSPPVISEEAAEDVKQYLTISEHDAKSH
Sequence of REV7^Y63A-SHLD3(1–82) (human) (Q9UI95 whole entry Y63A, chain 1 of 2): as the sequence (Q9UI95 whole entry W171A, chain 1 of 2) above, with Y63A, A171W counted along it
Sequence of REV7^Y63A-SHLD3(1–82) (human) (Q6ZNX1 1-82, chain 2 of 2, further chain): as the sequence (Q6ZNX1 1-82, chain 2 of 2, further chain) above

B1: MBP-REV3(1847–2021) (domain or fragment)
chain: MLTPTPDSSPRSTSSPSQSKNGSFTPRTANILKPLMSPPSREEIMATLLDHDLSETIYQEPFCSNPSDVPEKPREIGGRLLMVETRLANDLAEFEGDFSLEGLRLWKTAFSAMTQNPRPGSPLRSGQGVVNKGSSNSPKMVEDKKIVIMPCKCAPSRQLVQVWLQAKEEYERSKK
With B1, the dissociation constant Kd (commonly the free concentration of one partner at which half of the binding sites on the other are occupied at equilibrium, for simple one-to-one binding) in test [1] is 37 µM; in test [2] it was 1.1 µM.
